The target of experiment [1] is T1, GDF15 (ligand used in the GFRAL/RET cell assays) (UniProt Q99988 197-308, limits assumed).
T1 sequence (looked up): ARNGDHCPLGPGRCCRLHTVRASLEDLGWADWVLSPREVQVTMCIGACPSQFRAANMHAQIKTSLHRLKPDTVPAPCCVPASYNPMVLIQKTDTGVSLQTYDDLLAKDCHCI
Put plainly: cell-based or functional assay.

For another experiment, the target named is T2, GDNF (UniProt P39905 78-211).
T2 sequence (looked up): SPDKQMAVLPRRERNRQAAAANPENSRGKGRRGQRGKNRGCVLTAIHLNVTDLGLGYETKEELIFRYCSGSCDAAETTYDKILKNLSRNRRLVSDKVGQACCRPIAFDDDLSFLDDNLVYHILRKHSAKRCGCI
The experiment can be described thus: BLI Octet; IgG on sensor.

Another experiment addresses GDF8 (UniProt O14793 267-375). Put plainly: BLI Octet; IgG on sensor.
For another experiment, the target named is T3, GDF11 (UniProt O95390 299-407).
T3 construct: Also used as ligand in the Activin 2B receptor/SMAD reporter assay
T3 sequence (O95390 299-407 limits assumed): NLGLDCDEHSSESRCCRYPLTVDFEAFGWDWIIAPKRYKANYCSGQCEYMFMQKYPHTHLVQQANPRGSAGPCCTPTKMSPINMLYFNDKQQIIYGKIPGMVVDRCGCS
Put plainly: BLI Octet; IgG on sensor.

Experiment [2] deals with T4, Human Activin A Fc (human, UniProt P08476 311-426).
T4 construct: not shown: Fc part
T4 sequence (looked up): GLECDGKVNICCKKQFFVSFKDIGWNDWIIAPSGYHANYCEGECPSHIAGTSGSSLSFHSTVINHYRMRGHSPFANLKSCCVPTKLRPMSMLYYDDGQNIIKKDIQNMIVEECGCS
Put plainly: BLI Octet; IgG on sensor.

Experiment [3] addresses T5, Human Activin B (human, UniProt P09529 293-407).
T5 sequence (looked up): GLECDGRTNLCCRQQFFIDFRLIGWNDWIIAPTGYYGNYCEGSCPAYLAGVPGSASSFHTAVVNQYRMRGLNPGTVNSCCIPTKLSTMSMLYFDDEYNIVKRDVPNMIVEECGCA
Put plainly: BLI Octet; IgG on sensor.

The target in the next experiment is T6, Human GDF15 Fc (human, UniProt Q99988 195-308, limits assumed, biotinylated (EZ-Link Sulfo-NHS-Biotinylation Kit) in the SPR assay).
T6 construct: also called human GDF15-Fc fusion; biotinylated Human GDF15 Fc; not shown: Fc part
T6 sequence: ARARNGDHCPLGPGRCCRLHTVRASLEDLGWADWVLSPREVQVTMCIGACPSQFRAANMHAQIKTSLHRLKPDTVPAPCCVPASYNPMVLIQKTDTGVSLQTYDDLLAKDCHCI
The experiment can be described thus: BLI Octet; IgG on sensor, 100 nM antigen (avid). As for the experimental part:
Briefly, ForteBio affinity measurements were performed by loading IgGs on-line onto AHC sensors. Sensors were equilibrated off-line in assay buffer for 30 min and then monitored on-line for 60 seconds for baseline establishment. Sensors with loaded IgGs were exposed to 100 nM antigen for 3 minutes, and afterwards were transferred to assay buffer for 3 min for off-rate measurement. All kinetics were analyzed using the 1:1 binding model.

A further experiment has as its target T7, GDF10 (UniProt P55107 369-478).
T7 sequence (looked up): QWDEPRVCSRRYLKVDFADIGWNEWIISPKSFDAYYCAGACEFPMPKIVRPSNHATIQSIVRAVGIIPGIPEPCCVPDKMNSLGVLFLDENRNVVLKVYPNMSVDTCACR
The experiment can be described thus: BLI Octet; IgG on sensor, 100 nM antigen (avid).

The target in a further experiment is T8, Human BMP9 (human, UniProt Q9UK05 320-429).
T8 sequence (looked up): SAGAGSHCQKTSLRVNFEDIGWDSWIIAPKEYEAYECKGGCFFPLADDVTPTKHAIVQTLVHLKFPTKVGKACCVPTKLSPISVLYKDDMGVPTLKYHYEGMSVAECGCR
The experiment can be described thus: BLI Octet; IgG on sensor, 100 nM antigen (avid).

In experiment [4] the target is T9, Human BMP10 (human, UniProt O95393 317-424).
T9 sequence (looked up): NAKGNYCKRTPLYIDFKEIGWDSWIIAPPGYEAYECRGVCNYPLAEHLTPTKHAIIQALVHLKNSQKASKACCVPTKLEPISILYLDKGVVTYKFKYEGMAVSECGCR
Put plainly: BLI Octet; IgG on sensor, 100 nM antigen (avid).

Experiment [5] concerns the target T4, Human Activin A Fc. Put plainly: BLI Octet; IgG on sensor, 100 nM antigen (avid).
The target of experiment [6] is T9, Human BMP10. The experiment can be described thus: BLI Octet; IgG on sensor.
The target in experiment [7] is T5, Human Activin B. Put plainly: BLI Octet; IgG on sensor, 100 nM antigen (avid).

B1: GDF15 antibody agent Clone G, IgG (antibody, V domains shown)
VH: QVQLVQSGAEVKKPGSSVKVSCKASGGTFQGYAISWARQAPGQGLEWMGGIIPPYATANYAQKFQGRVTITADESTSTAYMELSSLRSEDTAVYYCARGVGELHLDVWGQGTMVTVSS
VL: not shown
With B1, in experiment [1], the “GDF15-GFRAL RET pERK IC50 (pM)” value was found to be 66.7 pM. Besides, the “GDF15-GFRAL-RET Luciferase IC50 (pM)” value in experiment [1] stood at 97.1 pM. Also, the binding result is on record as “no binding (tested: 100 nM)” with GDNF; “no binding (tested: 100 nM)” in the experiment with GDF8; “no binding (tested: 100 nM)” in the experiment with GDF11; “no binding (tested: 100 nM)” with Human Activin A Fc [2]; “no binding (tested: 100 nM)” with Human Activin B [3]; “binds” in the experiment with Human BMP9. In the experiment with Human BMP10 [4], the binding result is on record as “binds”. In addition, the equilibrium dissociation constant (Kd) came to 0.256 nM with Human GDF15 Fc and 36.8 nM with GDF10.

B2: GDF15 antibody agent Clone A, IgG (antibody, V domains shown)
VH: QVQLQESGPGLVKPSQTLSLTCTVSGGSITSGGSYWSWIRQHPGKGLEWIGAIVYSGSTYYNPSLKSRVTISVDTSKNQFSLKLSSVTAADTAVYYCARGVEYQHFDYWGQGTLVTVSS
VL: not shown
Consider B2, for which the “GDF15-GFRAL RET pERK IC50 (pM)” value in [1] was determined as 102 pM. In addition, the “GDF15-GFRAL-RET Luciferase IC50 (pM)” value in [1] is 75 pM. The binding result was “no binding (tested: 100 nM)” in the experiment with GDNF; “no binding (tested: 100 nM)” with GDF8; “no binding (tested: 100 nM)” with GDF11; “no binding (tested: 100 nM)” with Human Activin B [3]; “binds” in the experiment with Human BMP9; “binds” in the experiment with Human BMP10 [4]. For the same molecule, the Kd with Human GDF15 Fc stood at 0.263 nM; in the experiment with Human Activin A Fc [5], 7.34 nM.

B3: GDF15 antibody agent Clone C, IgG (antibody, V domains shown)
VH: QVQLQESGPGLVKPSQTLSLTCTVSGGSISSGGYYWSWIRQHPGKGLEWIGAIVYSGHTYYNPSLKSRVTISVDTSKNQFSLKLSSVTAADTAVYYCARGVEYQHFSLWGQGTLVTVSS
VL: not shown
Take B3: in [1], the “GDF15-GFRAL RET pERK IC50 (pM)” value was found to be 145 pM. In addition, the “GDF15-GFRAL-RET Luciferase IC50 (pM)” value in experiment [1] was found to be 39.6 pM. In addition, the binding result with GDNF is given as “no binding (tested: 100 nM)”; with GDF8, “no binding (tested: 100 nM)”; in the experiment with GDF11, “no binding (tested: 100 nM)”; in the experiment with Human BMP10 [6], “no binding (tested: 100 nM)”; in the experiment with Human BMP9, “binds”. In addition, the Kd worked out at 0.254 nM with Human GDF15 Fc, 6.48 nM in the experiment with Human Activin A Fc [5] and 132 nM with Human Activin B [7].

For the origin of these results see US20250382359A1 (BYOMASS, published 2025).
